Test results as given in article PMC4825646, “MEC-10 and MEC-19 Reduce the Neurotoxicity of the MEC-4(d) DEG/ENaC Channel in Caenorhabditis elegans” (G3: Genes|Genomes|Genetics, 2016).

Molecular target: the molecule itself
Experiment: single-molecule photobleaching step counting (TIRF microscopy); MEC-4::EGFP on the Xenopus oocyte surface in the presence of MEC-19, 1-2 d after cRNA injection; observed bleaching steps compared with the binomial distribution predicted for trimers

B1: C-terminally EGFP-tagged MEC-4 (natural protein, C. elegans, UniProt P24612 1-768, looked up)
chain: MSWMQNLKNYQHLRDPSEYMSQVYGDPLAYLQETTKFVTEREYYEDFGYGECFNSTESEVQCELITGEFDPKLLPYDKRLAWHFKEFCYKTSAHGIPMIGEAPNVYYRAVWVVLFLGCMIMLYLNAQSVLDKYNRNEKIVDIQLKFDTAPFPAITLCNLNPYKASLATSVDLVKRTLSAFDGAMGKAGGNKDHEEEREVVTEPPTTPAPTTKPARRRGKRDLSGAFFEPGFARCLCGSQGSSEQEDKDEEKEEELLETTTKKVFNINDADEEWDGMEEYDNEHYENYDVEATTGMNMMEECQSERTKFDEPTGFDDRCICAFDRSTHDAWPCFLNGTWETTECDTCNEHAFCTKDNKTAKGHRSPCICAPSRFCVAYNGKTPPIEIWTYLQGGTPTEDPNFLEAMGFQGMTDEVAIVTKAKENIMFAMATLSMQDRERLSTTKRELVHKCSFNGKACDIEADFLTHIDPAFGSCFTFNHNRTVNLTSIRAGPMYGLRMLVYVNASDYMPTTEATGVRLTIHDKEDFPFPDTFGYSAPTGYVSSFGLRLRKMSRLPAPYGDCVPDGKTSDYIYSNYEYSVEGCYRSCFQQLVLKECRCGDPRFPVPENARHCDAADPIARKCLDARMNDLGGLHGSFRCRCQQPCRQSIYSVTYSPAKWPSLSLQIQLGSCNGTAVECNKHYKENGAMVEVFYEQLNFEMLTESEAYGFVNLLADFGGQLGLWCGISFLTCCEFVFLFLETAYMSAEHNYSLYKKKKAEKAKKIASGSF
notes: MEC-4, C. elegans DEG/ENaC protein, wild type; construct described in Chen et al. (2015); also called MEC-4::EGFP; source: Xenopus laevis oocytes, cRNA injected, on the oocyte surface; not shown: EGFP, C-terminal, kept
stoichiometry N: 3
